Test results reported in patent publication US20220033784A1 (priority 2020, published 2022).

Legend:
[1] = target: human high-affinity IL-2 receptor complex, IL-2 CD25/CD122/CD132 (α/β/γ), on cells (human) (UniProt P01589)
[2] = target: human intermediate-affinity IL-2 receptor complex, IL-2 CD122/CD132 (β/γ), on cells (human) (UniProt P14784)
[3] = target: T1, mouse high-affinity IL-2R (IL-2Rα/CD25 + IL-2Rβ + IL-2Rγ) on murine splenocytes (Treg cells, CD3+CD4+CD25+Foxp3+) (mouse) (UniProt P01590)
T1 sequence 1: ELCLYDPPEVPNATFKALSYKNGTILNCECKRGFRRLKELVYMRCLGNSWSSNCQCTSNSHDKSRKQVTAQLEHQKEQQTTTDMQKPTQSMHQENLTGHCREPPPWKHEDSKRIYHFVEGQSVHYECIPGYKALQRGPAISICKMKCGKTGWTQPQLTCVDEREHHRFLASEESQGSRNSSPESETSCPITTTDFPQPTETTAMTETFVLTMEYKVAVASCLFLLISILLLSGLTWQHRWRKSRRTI
T1 sequence 2: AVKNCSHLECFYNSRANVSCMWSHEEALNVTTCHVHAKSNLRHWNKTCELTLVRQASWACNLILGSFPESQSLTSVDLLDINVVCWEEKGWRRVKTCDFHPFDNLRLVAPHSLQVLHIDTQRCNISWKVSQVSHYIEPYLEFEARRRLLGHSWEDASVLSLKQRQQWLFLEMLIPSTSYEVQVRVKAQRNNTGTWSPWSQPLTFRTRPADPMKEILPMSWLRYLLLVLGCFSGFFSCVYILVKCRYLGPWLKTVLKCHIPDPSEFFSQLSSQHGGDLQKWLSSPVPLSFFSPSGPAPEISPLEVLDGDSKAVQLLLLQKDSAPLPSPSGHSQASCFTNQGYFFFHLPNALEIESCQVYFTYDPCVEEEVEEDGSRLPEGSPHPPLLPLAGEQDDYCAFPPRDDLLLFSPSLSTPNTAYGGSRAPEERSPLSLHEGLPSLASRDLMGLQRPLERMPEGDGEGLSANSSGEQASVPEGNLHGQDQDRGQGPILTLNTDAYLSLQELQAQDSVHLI
T1 sequence 3: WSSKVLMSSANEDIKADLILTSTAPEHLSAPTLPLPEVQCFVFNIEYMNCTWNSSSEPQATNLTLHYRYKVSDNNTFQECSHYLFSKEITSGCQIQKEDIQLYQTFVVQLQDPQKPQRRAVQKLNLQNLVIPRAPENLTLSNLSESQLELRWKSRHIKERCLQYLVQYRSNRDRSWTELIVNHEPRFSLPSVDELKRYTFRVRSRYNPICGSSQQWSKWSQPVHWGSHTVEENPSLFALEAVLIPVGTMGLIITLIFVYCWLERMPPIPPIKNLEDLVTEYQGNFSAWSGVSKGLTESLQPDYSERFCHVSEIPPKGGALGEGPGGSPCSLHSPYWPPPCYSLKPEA

[4] = target: T2, mouse intermediate-affinity IL-2R (IL-2Rβ + IL-2Rγ) on murine splenocytes (CD8+ T cells and NK cells) (mouse) (UniProt P16297)
T2 sequence 1: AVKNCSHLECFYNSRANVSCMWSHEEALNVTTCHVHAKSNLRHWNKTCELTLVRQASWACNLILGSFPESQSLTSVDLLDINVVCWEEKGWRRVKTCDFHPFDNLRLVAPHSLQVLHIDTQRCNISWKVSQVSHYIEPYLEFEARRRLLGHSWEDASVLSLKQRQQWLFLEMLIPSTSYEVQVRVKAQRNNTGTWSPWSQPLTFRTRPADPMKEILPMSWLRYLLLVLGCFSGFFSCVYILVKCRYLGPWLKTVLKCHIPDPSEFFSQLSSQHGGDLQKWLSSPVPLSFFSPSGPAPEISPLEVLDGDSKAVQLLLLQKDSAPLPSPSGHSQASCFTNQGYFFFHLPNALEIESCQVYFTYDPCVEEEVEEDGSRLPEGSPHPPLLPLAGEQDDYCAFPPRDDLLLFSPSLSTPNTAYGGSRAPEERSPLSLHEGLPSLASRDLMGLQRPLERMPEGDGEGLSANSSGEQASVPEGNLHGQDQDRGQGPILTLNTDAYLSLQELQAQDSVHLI
T2 sequence 2: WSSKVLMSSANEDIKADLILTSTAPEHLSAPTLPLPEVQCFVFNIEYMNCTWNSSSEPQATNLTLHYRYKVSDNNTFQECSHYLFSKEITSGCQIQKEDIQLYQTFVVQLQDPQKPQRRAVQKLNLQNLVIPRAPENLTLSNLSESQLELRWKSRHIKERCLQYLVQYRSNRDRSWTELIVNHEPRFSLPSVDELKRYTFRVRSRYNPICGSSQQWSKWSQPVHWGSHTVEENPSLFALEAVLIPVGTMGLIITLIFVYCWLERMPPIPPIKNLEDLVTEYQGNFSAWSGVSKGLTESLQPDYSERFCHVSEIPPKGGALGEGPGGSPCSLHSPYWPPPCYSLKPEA

[5] = target: T2, mouse intermediate-affinity IL-2R (IL-2Rβ + IL-2Rγ) on murine splenocytes (CD8+ T cells and NK cells) (mouse); remark: listed apart in the source

Substance	EC50 (read off the curve), pSTAT5 MFI in Treg cells of hPBMC [1]	EC50 (read off the curve), pSTAT5 MFI in NK cells of hPBMC [2]	EC50 (read off the curve), pSTAT5 MFI, murine splenocyte Treg cells [3]	EC50 (read off the curve), pSTAT5 MFI, murine splenocyte CD8 T cells [4]	EC50 (read off the curve), pSTAT5 MFI, murine splenocyte NK cells [5]
Fc-IL2-R38N:L40T-T41N:K43T (from UniProt P01857-1) (Fc fusion)	20 nM	6 nM	–	–	–
human IL-2 variant hIL-2v (F42A, Y45A, L72G), secreted by virus-infected HeLa cells (from UniProt P60568 21-153) (ligand)	–	–	70 ng/mL	100 ng/mL	20 ng/mL
